Experiment [1] addresses HLA-A*02:01. As to the kind of experiment: IEDB peptide-MHC binding, purified MHC/competitive/radioactivity; ≥ and ≤ were set here for values at or beyond the usual limits of such assays.
Experiment [2] deals with HLA-A*01:01. The experiment can be described thus: IEDB peptide-MHC binding, purified MHC/direct/fluorescence; filed as Kd, often an IC50 or EC50 that approximates it; ≥ and ≤ were set here for values at or beyond the usual limits of such assays. As to conditions: source organism: Influenza A virus (A/Wisconsin/4755/1994(H1N1)).
Experiment [3] concerns the target HLA-A*02:01. The experiment is described as above.
Experiment [4] has as its target HLA-A*03:01. Described as above.
Experiment [5] concerns the target HLA-A*11:01. The experiment is described as above.
Experiment [6] deals with HLA-A*26:01. Described as above. As to conditions: source organism: Influenza A virus H3N2.
Experiment [7] has as its target HLA-A*26:02. Described as above.
The target in experiment [8] is HLA-A*31:01. Described as above.
Experiment [9] has as its target HLA-A*68:02. The description is as above. As to conditions: source organism: Influenza A virus (A/Wisconsin/4755/1994(H1N1)).
Experiment [10] has as its target HLA-A*69:01. The description is as above.
Experiment [11] concerns the target HLA-B*07:02. The description is as above.
Experiment [12] concerns the target HLA-B*08:01. The experiment is described as above. The settings on record: source organism: Influenza A virus (A/seal/Mass/1/1980(H7N7)).
In experiment [13] the target is HLA-B*15:01. Described as above.
Experiment [14] deals with HLA-B*15:17. The description is as above. As to conditions: source organism: Influenza A virus (A/Wisconsin/4755/1994(H1N1)).
Experiment [15] deals with HLA-B*18:01. The description is as above. As to conditions: source organism: Influenza A virus (A/Wisconsin/4755/1994(H1N1)).
The target in experiment [16] is HLA-B*27:05. Described as above.
In experiment [17] the target is HLA-B*40:01. Described as above. As to conditions: source organism: Influenza A virus (A/Wisconsin/4755/1994(H1N1)).
Experiment [18] has as its target HLA-B*46:01. The description is as above. As to conditions: source organism: Influenza A virus (A/Wisconsin/4755/1994(H1N1)).
Experiment [19] deals with HLA-B*48:01. The description is as above. The settings on record: source organism: Influenza A virus (A/Wisconsin/4755/1994(H1N1)).
Experiment [20] concerns the target HLA-B*57:01. The description is as above. As to conditions: source organism: Influenza A virus (A/Wisconsin/4755/1994(H1N1)).
Experiment [21] has as its target HLA-B*58:01. Described as above.
Experiment [22] concerns the target HLA-A*01:01. The experiment can be described thus: IEDB peptide-MHC binding, purified MHC/competitive/fluorescence; filed as Kd, often an IC50 or EC50 that approximates it; ≥ and ≤ were set here for values at or beyond the usual limits of such assays. The settings on record: source organism: Human immunodeficiency virus 1.
The target of experiment [23] is HLA-A*02:03. Described as above. The settings on record: source organism: Human immunodeficiency virus 1.
Experiment [24] concerns the target HLA-A*02:06. Described as above. The settings on record: source organism: Human immunodeficiency virus 1.
For experiment [25], the target named is HLA-A*11:01. The description is as above.
Experiment [26] deals with HLA-A*26:02. The experiment is described as above. The settings on record: source organism: Human immunodeficiency virus 1.
In experiment [27] the target is HLA-A*30:01. The experiment is described as above. The settings on record: source organism: Human immunodeficiency virus 1.
Experiment [28] deals with HLA-B*15:01. The experiment is described as above. As to conditions: source organism: Human immunodeficiency virus 1.
Experiment [29] has as its target HLA-B*15:17. The description is as above. As to conditions: source organism: Human immunodeficiency virus 1.
For experiment [30], the target named is HLA-B*18:01. The experiment is described as above. The settings on record: source organism: Human immunodeficiency virus 1.
Experiment [31] has as its target HLA-B*57:01. The description is as above. The settings on record: source organism: Human immunodeficiency virus 1.
For experiment [32], the target named is HLA-C*03:03. The experiment can be described thus: IEDB peptide-MHC binding, purified MHC/direct/fluorescence; filed as Kd, often an IC50 or EC50 that approximates it; ≥ and ≤ were set here for values at or beyond the usual limits of such assays. As to conditions: source organism: Homo sapiens.
Experiment [33] addresses HLA-C*06:02. The description is as above.
Experiment [34] deals with HLA-A*32:07. As to the kind of experiment: IEDB peptide-MHC binding, purified MHC/competitive/fluorescence; filed as Kd, often an IC50 or EC50 that approximates it; ≥ and ≤ were set here for values at or beyond the usual limits of such assays.
Experiment [35] concerns the target HLA-B*15:42. The description is as above.
In experiment [36] the target is HLA-B*45:06. Described as above.
Experiment [37] has as its target HLA-B*83:01. The description is as above.
In experiment [38] the target is HLA-C*15:02. The experiment can be described thus: IEDB peptide-MHC binding, purified MHC/direct/fluorescence; filed as Kd, often an IC50 or EC50 that approximates it; ≥ and ≤ were set here for values at or beyond the usual limits of such assays. The settings on record: source organism: Bacillus cereus G9241.
Experiment [39] deals with HLA-A*24:03. The experiment can be described thus: IEDB peptide-MHC binding, purified MHC/competitive/fluorescence; filed as Kd, often an IC50 or EC50 that approximates it; ≥ and ≤ were set here for values at or beyond the usual limits of such assays. The settings on record: source organism: Bacillus cereus G9241.
In experiment [40] the target is HLA-C*14:02. Described as above. As to conditions: source organism: Bacillus cereus G9241.
Setting [41] is: source organism: Influenza A virus (A/Wisconsin/4755/1994(H1N1)).
[42] abbreviates: source organism: Bacillus cereus G9241.

The values below come from the Immune Epitope Database (IEDB).

A value given as a limit tells only on which side of the number the result lay.

Take ALSRKVAEL: the IC50 in experiment [1] (source organism: Homo sapiens) was 100 nM.
In the case of CISSCNPNP, in experiment [1] (source organism: Homo sapiens), the IC50 is no less than 20000 nM.
With DPKKTGGPI, the Kd in experiment [2], in experiment [3] (setting [41]), in experiment [4] (setting [41]), in experiment [5] (setting [41]), in experiment [6] and in experiment [7] (source organism: Influenza A virus H3N2) was no less than 20000 nM throughout. Moreover, the Kd in experiment [8] (setting [41]) was no less than 20000 nM; in experiment [9] it was no less than 20000 nM; in experiment [10] (setting [41]), no less than 20000 nM; in experiment [11] (source organism: Influenza A virus (A/seal/Mass/1/1980(H7N7))), 84.9 nM; in experiment [12], no less than 20000 nM; in experiment [13] (setting [41]), no less than 20000 nM. Moreover, the Kd in [14], in experiment [15], in experiment [16] (setting [41]), in [17], in [18] and in experiment [19] was no less than 20000 nM each time. The Kd in [20] and in [21] (setting [41]) was no less than 20000 nM in each case.
EYTDYMPSM returned a Kd in experiment [7] (source organism: Dengue virus 2 Thailand/16681/84) of 26 nM.
With IMDKNIILKA, the IC50 in experiment [1] (source organism: Influenza A virus (A/Puerto Rico/8/1934(H1N1))) came to 43000 nM.
KSLYNTIATLY: the Kd in experiment [22] is 2910 nM; in experiment [23], no less than 20000 nM; in experiment [24], 2020 nM; in [25] (source organism: Human immunodeficiency virus 1) it was 697 nM; in [26], 1060 nM; in experiment [27], no less than 20000 nM. Further, the Kd in experiment [28] is no less than 20000 nM; in experiment [29], 12.6 nM; in [30], 346 nM; in experiment [31], 652 nM.
Consider RTMEVFTMY, for which the Kd in experiment [25] (source organism: Yersinia pestis Nepal516) is 3.3 nM.
In the case of RTYSGPMNKV, the IC50 in experiment [1] (source organism: Homo sapiens) amounted to 793 nM.
For RVMAPRALL, the Kd in experiment [3] (source organism: Homo sapiens) turned out to be 15600 nM; in experiment [4] (source organism: Homo sapiens), 775 nM; in experiment [5] (source organism: Homo sapiens) it was 1000 nM; in experiment [8] (source organism: Homo sapiens), 143 nM; in [10] (source organism: Homo sapiens), 130 nM; in experiment [11] (source organism: Homo sapiens), 232 nM. In addition, the Kd in experiment [13] (source organism: Homo sapiens) amounted to 102 nM; in experiment [16] (source organism: Homo sapiens) it was 2170 nM; in [21] (source organism: Homo sapiens) it was 304 nM; in experiment [32] it was 113 nM; in experiment [33] (source organism: Homo sapiens), 49 nM; in experiment [34] (source organism: Homo sapiens) it was 21.9 nM. Besides, the figures for the Kd in experiment [35] (source organism: Homo sapiens), in experiment [36] (source organism: Homo sapiens) and in [37] (source organism: Homo sapiens) were no less than 20000 nM, no less than 5000 nM and 9340 nM, respectively.
Regarding YYKKTFSAL, the Kd is 1660 nM in experiment [33] (setting [42]); no less than 20000 nM in [38]; no more than 0.1 nM in [39]; 29 nM in experiment [34] (setting [42]); no less than 5000 nM in [35] (setting [42]); no less than 5000 nM in [36] (setting [42]). Also, the Kd was no less than 5000 nM in experiment [37] (setting [42]) and 0.4 nM in experiment [40].
